Measurements: PMC4011162, “A gene horizontally transferred from bacteria protects arthropods from host plant cyanide poisoning” (eLife, 2014)

B1: Tu-CAS (Tetranychus urticae) (protein)
chain: MTESTVDRINGITPSALDLIGNTPLIALDRLWPGPGRLLAKCEFLNPTASLKDRSSYYMIAKAKESGQLKDGESVIEVTSGNQGGGIACVTAVMGHPFTVTMSKGNSPQRAIMMNALGANVILVDQVTGKPGNVTADDVAAAEETAMKIREETNAYYVDQFNNPTNCLAHYETTGPEIWRQTNGRIDAFLVGCGTGGCFVGTSKFLKEKNPNVRCFVVEPEGCQPIAGCTITKPLHLLQGSGYGCVPTLFDKKVYNDSISVSDEEAIEYRKLLGQKEGLFCGFTTGGNIAAAIKLLKSGQLPKDAWVVTILCDSGLKYPE
notes: tag removal not mentioned; PLP-dependent, predicted cytosolic

Assays:
Tu-CAS = molecular target: T1, Tu-CAS (Tetranychus urticae, UniProt T1KF23); test: cofactor dependence of enzymatic activity; type: biochemical; conditions: 500 µM pyridoxal-5'-phosphate in assay; Schiff base lysine conserved by sequence
T1 construct: gene 107363798; tag removal not mentioned; PLP-dependent, predicted cytosolic
T1 sequence (T1KF23 1-320): B1 chain

purified protein [1] = substrate: N[C@@H](CS)C(=O)O; test: purified protein; type: biochemical, Tetranychus urticae; conditions: co-substrate sodium cyanide (standard 0.01 M stock), 0.2 M Tris pH 8.5, 37 °C, preincubated with 500 µM pyridoxal-5'-phosphate
purified protein [2] = substrate: CC(=O)OC[C@H](N)C(=O)O; test: purified protein; conditions: co-substrate sodium sulfide (standard 2 mM); preincubated with 500 µM pyridoxal-5'-phosphate; pH not given

| Molecule | cofactor dependence of enzymatic activity (Tu-CAS) | Km (purified protein [1]) | kcat/Km (purified protein [1]) | Km (purified protein [2]) | kcat/Km (purified protein [2]) |
| --- | --- | --- | --- | --- | --- |
| Cc1ncc(COP(=O)(O)O)c(C=O)c1O [pyridoxal-5′-phosphate] | Enzymatic activity was dependent on pyridoxal-5′-phosphate as a cofactor | – | – | – | – |
| B1 | – | 312 µM | 6840 M⁻¹ s⁻¹ | 3170 µM | 203 M⁻¹ s⁻¹ |
